From PMC7948961, “Proteomic identification and validation of novel interactions of the putative tumor suppressor PRELP with membrane proteins including IGFI-R and p75NTR” (The Journal of Biological Chemistry, 2021)

B1: Recombinant PRELP (rPRELP), human PRELP with a C-terminal FLAG tag, from Mimic Sf9 cells (natural protein, UniProt P51888 21-382, looked up)
chain: QPTRRPRPGTGPGRRPRPRPRPTPSFPQPDEPAEPTDLPPPLPPGPPSIFPDCPRECYCPPDFPSALYCDSRNLRKVPVIPPRIHYLYLQNNFITELPVESFQNATGLRWINLDNNRIRKIDQRVLEKLPGLVFLYMEKNQLEEVPSALPRNLEQLRLSQNHISRIPPGVFSKLENLLLLDLQHNRLSDGVFKPDTFHGLKNLMQLNLAHNILRKMPPRVPTAIHQLYLDSNKIETIPNGYFKSFPNLAFIRLNYNKLTDRGLPKNSFNISNLLVLHLSHNRISSVPAINNRLEHLYLNNNSIEKINGTQICPNDLVAFHDFSSDLENVPHLRYLRLDGNYLKPPIPLDLMMCFRLLQSVVI
notes: Proline and arginine-rich end leucine-rich repeat protein (PRELP), human; secreted into the supernatant; No cleavage of the FLAG tag is described; source: Mimic Sf9 (baculovirus), purified from the supernatant (DDDDK-tagged Protein Purification Gel twice, Benzonase, SEC)
B2: Recombinant, soluble p75NTR (rsp75NTR), extracellular domain of human p75NTR (residues 1-161) with a C-terminal hexahistidine tag (domain or fragment)
chain: KEACPTGLYTHSGECCKACNLGEGVAQPCGANQTVCEPCLDSVTFSDVVSATEPCKPCTECVGLQSMSAPCVEADDAVCRCAYGYYQDETTGRCEACRVCEAGSGLVFSCQDKQNTVCEECPDGTYSDEANHVDPCLPCTVCEDTERQLRECTRWADAECE
modifications: Printed residues 1-161 are read as mature numbering (signal 1-28, offset +28): 161+28=189 falls at the end of the fourth cysteine-rich repeat, and the same paper's IGFI-R 1-905 is mature numbering …

Tests used:
[1] = biological target: T1, Recombinant, soluble IGFI-R (rsIGFI-R), extracellular domain of human IGFI-R (residues 1-905) with a … (human, UniProt P08069 31-935); experiment: SPR; Biacore 2000; rPRELP immobilised by amine coupling on CM5 at around 4000 RU; rsIGFI-R or rsp75NTR injected at 30 μl/min; 10 mM HEPES pH 7.5, 150 mM NaCl, 0.05% Tween-20, 15 °C; KD from fitting the equilibrium curve, three independent measurements; conditions: both partners purified
T1 construct: Insulin-like growth factor 1 receptor, human, extracellular domain, residues 1-905; 31-935 of the precursor P08069; also called extracellular domain of IGFI-R; source: ExpiCHO, transiently transfected, purified from the supernatant (Ni-NTA, SEC)

[2] = biological target: B1; experiment: as above; conditions: both partners purified

| Binder | Kd [1] [µM] | Kd [2] [µM] |
| --- | --- | --- |
| B1 | 6.8 | – |
| B2 | – | 12.1 |
